Test results from US20230293638A1 (Eli Lilly, published 2023).

Target: T1, human gastric inhibitory peptide receptor (human, UniProt P48546 22-466)
T1 sequence (looked up): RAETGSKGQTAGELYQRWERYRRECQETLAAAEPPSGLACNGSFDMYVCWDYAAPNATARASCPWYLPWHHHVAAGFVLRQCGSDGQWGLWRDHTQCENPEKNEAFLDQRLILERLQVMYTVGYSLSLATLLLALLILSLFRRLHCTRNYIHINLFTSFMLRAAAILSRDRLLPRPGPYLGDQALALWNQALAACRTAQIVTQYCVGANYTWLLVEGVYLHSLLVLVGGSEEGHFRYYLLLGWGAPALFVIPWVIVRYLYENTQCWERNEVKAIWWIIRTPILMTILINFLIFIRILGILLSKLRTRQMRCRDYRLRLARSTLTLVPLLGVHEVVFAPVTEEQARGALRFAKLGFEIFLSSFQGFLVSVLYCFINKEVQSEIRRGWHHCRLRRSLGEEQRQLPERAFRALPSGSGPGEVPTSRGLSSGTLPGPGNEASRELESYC
Assay: cell-based or functional assay

Binder	hGIPR cAMP EC50 ratio
YXEGTXTSDXSIXLDXKAQXEFIXXLIEGG (Aib2; αMeF(2F)6; 4Pal10; αMeL13; Orn16; K17((2-[2-(2-Amino-ethoxy)-ethoxy]-acetyl)2-(γGlu)-CO-(CH2)16-CO2H); Aib20; D-Glu24; αMeY25; C-terminal NH2) [Peptide 265]	9.77

Target: human GLP-1 receptor (human, UniProt P43220 24-463)
Assay: cell-based or functional assay

Binder	hGLPIR cAMP EC50 ratio
YXEGTXTSDXSIXLDXKAQXEFIXXLIEGG (Aib2; αMeF(2F)6; 4Pal10; αMeL13; Orn16; K17((2-[2-(2-Amino-ethoxy)-ethoxy]-acetyl)2-(γGlu)-CO-(CH2)16-CO2H); Aib20; D-Glu24; αMeY25; C-terminal NH2) [Peptide 265]	3.27
YXEGTFTSDYSILLDKKAQXAFIXYLIEGGPSSGAPPPS (Aib2; K17((2-[2-(2-Amino-ethoxy)-ethoxy]-acetyl)2-(γGlu)-CO-(CH2)18-CO2H); Aib20; D-Glu24; C-terminal NH2) [Peptide 84]	0.173
YXXGTFTSDYSILLDKKAQXAFIEYLIEGGPSSGAPPPS (Aib2; Aad3; K17((2-[2-(2-Amino-ethoxy)-ethoxy]-acetyl)2-(γGlu)-CO-(CH2)18-CO2H); Aib20; C-terminal NH2) [Peptide 89]	0.175
YXEGTXTSDXSIXLDXKAQXEFIXXLIEGGPSSGAPPPS (Aib2; αMeF(2F)6; 4Pal10; αMeL13; Orn16; K17((2-[2-(2-Amino-ethoxy)-ethoxy]-acetyl)2-(γGlu)-CO-(CH2)16-CO2H); Aib20; D-Glu24; αMeY25; C-terminal NH2) [Peptide 4]	1.41
YXEGTXTSDYSILLDKIAQXAFIEYLIKGG (Aib2; αMeF6; Aib20; K28((2-[2-(2-Amino-ethoxy)-ethoxy]-acetyl)2-(γGlu)-CO-(CH2)18-CO2H); C-terminal NH2) [Peptide 95]	0.0576
YXEGTFTSDYSIXLDKIAQXAFIEYLIKGG (Aib2; αMeL13; Aib20; K28((2-[2-(2-Amino-ethoxy)-ethoxy]-acetyl)2-(γGlu)-CO-(CH2)18-CO2H); C-terminal NH2) [Peptide 97]	0.0268
YXEGTXTSDYSILLDKKAQXAFIEYLIEGG (Aib2; αMeF6; K17((2-[2-(2-Amino-ethoxy)-ethoxy]-acetyl)2-(γGlu)-CO-(CH2)18-CO2H); Aib20; C-terminal NH2) [Peptide 98]	0.384
YXEGTXTSDYSIXLDKKAQXAFIEYLIEGG (Aib2; αMeF6; αMeL13; K17((2-[2-(2-Amino-ethoxy)-ethoxy]-acetyl)2-(γGlu)-CO-(CH2)18-CO2H); Aib20; C-terminal NH2) [Peptide 99]	0.629
YXEGTXTSDYSIXLDEKAQXEFIEYLIEGG (Aib2; αMeF(2F)6; αMeL13; K17((2-[2-(2-Amino-ethoxy)-ethoxy]-acetyl)2-(γGlu)-CO-(CH2)18-CO2H); Aib20; C-terminal NH2) [Peptide 103]	0.655
YXEGTXTSDYSIXLDEKAQXEFIEYLIEGG (Aib2; αMeF(2F)6; αMeL13; K17((2-[2-(2-Amino-ethoxy)-ethoxy]-acetyl)2-(γGlu)-CO-(CH2)16-CO2H); Aib20; C-terminal NH2) [Peptide 104]	1.85
